Key:
[1] = target: T1, human FOLR2 extracellular domain linked to His tag (human, UniProt P14207 17-230, limits assumed); test: BLI, Ag 250 nM over Ab on anti-hIgG Fc tip
T1 construct: extracellular domain; Antigen in solution in BLI; also called Hu-FRb; not shown: His tag

[2] = target: T2, human FOLR1 extracellular domain linked to His tag (human, UniProt P15328 25-233, limits assumed); test: BLI, Ag 250 nM over Ab on anti-hIgG Fc tip
T2 construct: extracellular domain; It may be the same product as m13; also called Hu-FRα; Hu-Ag; not shown: His tag
T2 sequence (P15328 25-233 limits assumed): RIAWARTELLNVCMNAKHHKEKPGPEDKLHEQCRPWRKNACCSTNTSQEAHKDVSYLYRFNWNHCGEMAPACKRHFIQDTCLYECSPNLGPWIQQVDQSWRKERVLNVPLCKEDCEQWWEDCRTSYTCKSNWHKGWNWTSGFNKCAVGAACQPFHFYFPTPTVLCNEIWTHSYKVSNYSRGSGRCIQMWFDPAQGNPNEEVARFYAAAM

[3] = target: T3, human FOLR3 extracellular domain linked to His tag (human, UniProt P41439 23-245, limits assumed); test: BLI, global 1:1 fit (62.5 nM row); all responses below quantification
T3 construct: extracellular domain; Antigen in solution in BLI; also called Hu-FRg; not shown: His tag
T3 sequence (P41439 23-245 limits assumed): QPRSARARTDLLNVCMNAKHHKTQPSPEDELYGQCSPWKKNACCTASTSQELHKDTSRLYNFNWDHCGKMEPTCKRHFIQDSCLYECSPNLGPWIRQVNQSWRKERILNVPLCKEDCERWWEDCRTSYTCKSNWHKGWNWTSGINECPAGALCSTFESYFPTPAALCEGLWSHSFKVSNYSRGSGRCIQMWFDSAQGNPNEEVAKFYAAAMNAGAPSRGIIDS

[4] = target: T4, cynomolgus monkey FOLR1 extracellular domain linked to His tag (cynomolgus monkey, UniProt A0A2K5U044 25-233); test: BLI, global 1:1 fit (125 nM row)
T4 construct: extracellular domain; Antigen in solution in BLI; It may be the same product as m14; also called Cyno-Ag; not shown: His tag
T4 sequence (A0A2K5U044 entry or part of it): as the sequence (P15328 25-233 limits assumed) above, with I2T, W4R, R37K, A146P, H171Y counted along it

[5] = target: T2, human FOLR1 extracellular domain linked …; test: BLI, global 1:1 fit (125 nM row)
[6] = target: T5, rat FOLR1 extracellular domain linked to His tag (rat); test: BLI, Ag 125 nM; * = below range of quantification
T5 construct: extracellular domain; Antigen in solution in BLI; also called Rat-Ag

[7] = target: T6, mouse FOLR1 extracellular domain linked to His tag (mouse, UniProt P35846 25-232, limits assumed); test: BLI, global 1:1 fit (62.5 nM row); only the 500 nM response quantifiable
T6 construct: extracellular domain; Antigen in solution in BLI; also called Mouse-Ag; not shown: His tag
T6 sequence (P35846 25-232 limits assumed): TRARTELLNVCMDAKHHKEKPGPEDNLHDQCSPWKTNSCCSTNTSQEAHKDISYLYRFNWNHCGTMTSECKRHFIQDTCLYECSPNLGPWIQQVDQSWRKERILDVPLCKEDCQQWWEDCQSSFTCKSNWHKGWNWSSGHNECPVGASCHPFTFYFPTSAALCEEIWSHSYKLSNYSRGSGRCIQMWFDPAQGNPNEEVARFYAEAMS

[8] = target: T6, mouse FOLR1 extracellular domain linked …; test: BLI, global 1:1 fit (250 nM row); only the 500 nM response quantifiable
[9] = target: T5, rat FOLR1 extracellular domain linked …; test: BLI, global 1:1 fit (125 nM row); all responses below quantification
[10] = target: T5, rat FOLR1 extracellular domain linked …; test: BLI, Ag 7.82 nM; * = below range of quantification
[11] = target: T4, cynomolgus monkey FOLR1 extracellular …; test: BLI, global 1:1 fit (15.6 nM row)
[12] = target: T2, human FOLR1 extracellular domain linked …; test: BLI, global 1:1 fit (15.6 nM row)
[13] = target: T6, mouse FOLR1 extracellular domain linked …; test: BLI, global 1:1 fit (7.82 nM row); only the 500 nM response quantifiable
[14] = target: T1, human FOLR2 extracellular domain linked …; test: BLI, Ag 15.6 nM; * = below range of quantification
[15] = target: T3, human FOLR3 extracellular domain linked …; test: BLI, Ag 15.6 nM; * = below range of quantification
[16] = target: T1, human FOLR2 extracellular domain linked …; test: BLI, Ag 125 nM over Ab on anti-hIgG Fc tip
[17] = target: T2, human FOLR1 extracellular domain linked …; test: BLI, Ag 125 nM over Ab on anti-hIgG Fc tip
[18] = target: T6, mouse FOLR1 extracellular domain linked …; test: BLI, Ag 500 nM over Ab on anti-hIgG Fc tip
[19] = target: T4, cynomolgus monkey FOLR1 extracellular …; test: BLI, Ag 500 nM over Ab on anti-hIgG Fc tip
[20] = target: T2, human FOLR1 extracellular domain linked …; test: BLI, Ag 500 nM over Ab on anti-hIgG Fc tip
[21] = target: T1, human FOLR2 extracellular domain linked …; test: BLI, global 1:1 fit (7.82 nM row)
[22] = target: T2, human FOLR1 extracellular domain linked …; test: BLI, global 1:1 fit (7.82 nM row)
[23] = target: T5, rat FOLR1 extracellular domain linked …; test: BLI, global 1:1 fit (250 nM row); all responses below quantification
[24] = target: T5, rat FOLR1 extracellular domain linked …; test: BLI, global 1:1 fit (7.82 nM row); all responses below quantification

T1 sequence (P14207 17-230 limits assumed): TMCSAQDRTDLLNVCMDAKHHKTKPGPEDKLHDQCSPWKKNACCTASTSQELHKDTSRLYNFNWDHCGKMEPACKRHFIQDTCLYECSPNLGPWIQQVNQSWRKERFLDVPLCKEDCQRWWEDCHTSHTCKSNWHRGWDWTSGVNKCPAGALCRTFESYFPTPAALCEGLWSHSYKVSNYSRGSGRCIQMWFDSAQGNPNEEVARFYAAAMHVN

B1: F131 (antibody, V domains shown)
VH: EVQLLESGGGVVQPGRSLRLSCAASGFTFSSYGMHWVRQAPGKGLEWVAVISYDGSNKYYADSVKGRFTISRANSKNTLYLQMNSLRAEDTAVYYCARPRAYYGAYGSSFDYWGQGTQVTVSS
VL: EIVMTQSPSSVSASVGDRVAITCRASQGISSWLAWYQQKPGKAPKLLIYAASSLQSGVPSRFSGSGSGTDFTLTISSLQPEDFATYYCQQSYSTPLTFGGGTKVDIK
notes: also called clone F131; F131 mAb
**Q.** How did the Response [1] turn out when B1 was run?
**A.** 0.0207

**Q.** And the Response [2]?
**A.** 0.178

**Q.** And the koff [3]?
**A.** 0.217 s⁻¹

**Q.** And the kon [3]?
**A.** 1660 M⁻¹ s⁻¹

**Q.** What about the Kd [4] of the same binder?
**A.** 8.15 nM

**Q.** What about the koff [4] of the same binder?
**A.** 0.00157 s⁻¹

**Q.** What about the kon [4] of the same binder?
**A.** 193000 M⁻¹ s⁻¹

**Q.** What about the Kd [5] of the same binder?
**A.** 1.53 nM

**Q.** What about the koff [5] of the same binder?
**A.** 0.000338 s⁻¹

**Q.** What about the kon [5] of the same binder?
**A.** 221000 M⁻¹ s⁻¹

**Q.** And the Response [6]?
**A.** -0.00477

**Q.** What about the Kd [7] of the same binder?
**A.** 2960 nM

**Q.** What about the koff [7] of the same binder?
**A.** 0.301 s⁻¹

**Q.** And the kon [7]?
**A.** 102000 M⁻¹ s⁻¹

**Q.** And the Kd [8]?
**A.** 2960 nM

**Q.** And the koff [8]?
**A.** 0.301 s⁻¹

**Q.** What about the kon [8] of the same binder?
**A.** 102000 M⁻¹ s⁻¹

**Q.** What about the koff [9] of the same binder?
**A.** 1.03 s⁻¹

**Q.** What about the kon [9] of the same binder?
**A.** 5490 M⁻¹ s⁻¹

**Q.** What about the Response [10] of the same binder?
**A.** -0.00563

**Q.** And the Kd [11]?
**A.** 8.15 nM

**Q.** What about the koff [11] of the same binder?
**A.** 0.00157 s⁻¹

**Q.** What about the kon [11] of the same binder?
**A.** 193000 M⁻¹ s⁻¹

**Q.** And the Kd [12]?
**A.** 1.53 nM

**Q.** What about the koff [12] of the same binder?
**A.** 0.000338 s⁻¹

**Q.** What about the kon [12] of the same binder?
**A.** 221000 M⁻¹ s⁻¹

**Q.** What about the Kd [13] of the same binder?
**A.** 2960 nM

**Q.** What about the koff [13] of the same binder?
**A.** 0.301 s⁻¹

**Q.** And the kon [13]?
**A.** 102000 M⁻¹ s⁻¹

**Q.** What about the Response [14] of the same binder?
**A.** 0.002

**Q.** And the Response [15]?
**A.** -0.00261

**Q.** What about the Response [16] of the same binder?
**A.** 0.0188

**Q.** What about the Response [17] of the same binder?
**A.** 0.144

**Q.** What about the Response [18] of the same binder?
**A.** 0.0167

**Q.** What about the Response [19] of the same binder?
**A.** 0.219

**Q.** And the Response [20]?
**A.** 0.181

**Q.** And the Kd [21]?
**A.** 142 nM

**Q.** And the koff [21]?
**A.** 0.0784 s⁻¹

**Q.** What about the kon [21] of the same binder?
**A.** 552000 M⁻¹ s⁻¹

**Q.** And the Kd [22]?
**A.** 5.3 nM

**Q.** What about the koff [22] of the same binder?
**A.** 0.0012 s⁻¹

**Q.** What about the kon [22] of the same binder?
**A.** 226000 M⁻¹ s⁻¹

**Q.** What about the koff [23] of the same binder?
**A.** 1.03 s⁻¹

**Q.** What about the kon [23] of the same binder?
**A.** 5490 M⁻¹ s⁻¹

**Q.** And the koff [24]?
**A.** 1.03 s⁻¹

**Q.** And the kon [24]?
**A.** 5490 M⁻¹ s⁻¹

B2: F131-LD038 (antibody, V domains shown)
VH: EVQLLESGGGVVQPGRSLRLSCAASGFTFSSYGMHWVRQAPGKGLEWVAVISYDGSNKYYADSVKGRFTISRANSKNTLYLQMNSLRAEDTAVYYCARPRAYYGAYGSSFDYWGQGTQVTVSS
VL: EIVMTQSPSSVSASVGDRVAITCRASQGISSWLAWYQQKPGKAPKLLIYAASSLQSGVPSRFSGSGSGTDFTLTISSLQPEDFATYYCQQSYSTPLTFGGGTKVDIK
modifications: drug-linker LD038 (PB038, maleimide-PEG unit-Val-Cit-PAB-exatecan) on cysteines freed by TCEP reduction; positions not given
notes: Antibody-drug conjugate of F131 (IgG1) with LD038; also called anti-huFOLR-1 conjugate F131-LD038; F131-038
**Q.** B2 was tested. Which Response [1] did it give?
**A.** 0.0243

**Q.** And the Response [2]?
**A.** 0.201

**Q.** And the koff [3]?
**A.** 0.233 s⁻¹

**Q.** What about the Kd [4] of the same binder?
**A.** 8.82 nM

**Q.** What about the koff [4] of the same binder?
**A.** 0.0016 s⁻¹

**Q.** What about the kon [4] of the same binder?
**A.** 181000 M⁻¹ s⁻¹

**Q.** And the Kd [5]?
**A.** 4.8 nM

**Q.** What about the koff [5] of the same binder?
**A.** 0.00107 s⁻¹

**Q.** What about the kon [5] of the same binder?
**A.** 224000 M⁻¹ s⁻¹

**Q.** What about the Response [6] of the same binder?
**A.** 0.0007

**Q.** And the Kd [7]?
**A.** 2870 nM

**Q.** And the koff [7]?
**A.** 0.266 s⁻¹

**Q.** What about the kon [7] of the same binder?
**A.** 92600 M⁻¹ s⁻¹

**Q.** And the Kd [8]?
**A.** 2870 nM

**Q.** And the koff [8]?
**A.** 0.266 s⁻¹

**Q.** And the kon [8]?
**A.** 92600 M⁻¹ s⁻¹

**Q.** What about the koff [9] of the same binder?
**A.** 0.224 s⁻¹

**Q.** What about the kon [9] of the same binder?
**A.** 2.64e+06 M⁻¹ s⁻¹

**Q.** What about the Response [10] of the same binder?
**A.** -0.00438

**Q.** And the Kd [11]?
**A.** 8.82 nM

**Q.** What about the koff [11] of the same binder?
**A.** 0.0016 s⁻¹

**Q.** What about the kon [11] of the same binder?
**A.** 181000 M⁻¹ s⁻¹

**Q.** And the Kd [12]?
**A.** 4.8 nM

**Q.** And the koff [12]?
**A.** 0.00107 s⁻¹

**Q.** And the kon [12]?
**A.** 224000 M⁻¹ s⁻¹

**Q.** And the Kd [13]?
**A.** 2870 nM

**Q.** And the koff [13]?
**A.** 0.266 s⁻¹

**Q.** What about the kon [13] of the same binder?
**A.** 92600 M⁻¹ s⁻¹

**Q.** What about the Response [14] of the same binder?
**A.** 0.0041

**Q.** And the Response [15]?
**A.** 0.0084

**Q.** What about the Response [16] of the same binder?
**A.** 0.0161

**Q.** What about the Response [17] of the same binder?
**A.** 0.176

**Q.** What about the Response [18] of the same binder?
**A.** 0.0125

**Q.** What about the Response [19] of the same binder?
**A.** 0.186

**Q.** What about the Response [20] of the same binder?
**A.** 0.205

**Q.** And the Kd [21]?
**A.** 84.4 nM

**Q.** What about the koff [21] of the same binder?
**A.** 0.0813 s⁻¹

**Q.** And the kon [21]?
**A.** 963000 M⁻¹ s⁻¹

**Q.** What about the Kd [22] of the same binder?
**A.** 4.79 nM

**Q.** And the koff [22]?
**A.** 0.00121 s⁻¹

**Q.** What about the kon [22] of the same binder?
**A.** 252000 M⁻¹ s⁻¹

**Q.** And the koff [23]?
**A.** 0.224 s⁻¹

**Q.** What about the koff [24] of the same binder?
**A.** 0.224 s⁻¹

**Q.** And the kon [24]?
**A.** 2.64e+06 M⁻¹ s⁻¹

— patent publication US20240245796A1 (PROFOUNDBIO US, published 2024)
